Data as given in patent US6576607B1, “Methods using CNS neurite outgrowth modulators” (Acorda Therapeutics, priority 1995, dated 2003).

What was measured:
dopaminergic neurons [1] = assay: [3H]dopamine uptake in primary cultures of embryonic ventral mesencephalon; assay type: cell-based, rat; details: 0.5 μM, 3 days
Method: (§1) Cell culture, dopamine uptake and treatment with MPP+have been described (Hartikka et al., 1992). Primary cultures containing dopaminergic neurons were prepared from the ventral mesencephalon of 14-day-old fetal rats and plated in 24 well plates. A culture well usually contained 6×10^5 cells/well, of which 3-5% were dopaminergic. Duplicate cultures were prepared for dopamine uptake or tyrosine hydroxylase staining. Dopamine uptake was measured using tritiated dopamine at concentrations of 50 nM (sp, act. 45 Ci/mmol, New England Nuclear). The survival of dopaminergic neurons in the culture was assayed by counting tyrosine hydroxylase (TH) immunopositive neurons, stained with a monoclonal antibody to TH (Boehringer Mannheim).
(§2) The monoclonal L1 antibodies 327 and 557.B6 (referred to as 557) were added to the culture medium on the day of plating at concentrations of 7.5-120 μg/ml and left for 3 days. In addition to treatment of the culture medium with antibodies, they were also substrate coated prior to plating of the cells, as described (Appel et al., 1993). In experiments with MPP^+ (active metabolite of methyl-phenyl-tetrahydropyridine, MPTP), antibodies or cAMP-elevating agents were added to the culture medium of 5-day-old cultures, followed by 1 μM MPP^+ on day 6 and cells were fixed on day 8 for immunocytochemistry. […]

dopaminergic neurons [2] = assay: Protection of dopaminergic neurons from MPP+ neurotoxicity; assay type: cell-based, rat; details: forskolin combined with PDE-IV inhibitor NQ-A
Method: as §1, §2

hippocampal neurons [3] = assay: Neurite outgrowth assay, hippocampal neurons; assay type: cell-based, rat; details: hippocampal neurons from 18-day embryos
Method: The tissue culture wells and glass cover slips (1.1 cm diameter) were incubated overnight at 4° C. with 0.01% poly-L-lysine (PLL) and washed three times with distilled water. L1-Fc or CHL1-Fc diluted in Ca/Mg-free Hank's Balanced Salt Solution were applied overnight at 4° C., at the concentrations indicated in the text. The wells and coverslips were washed twice with Hank's and once with seeding medium just before plating cells.
(§3) Hippocampal neurons were prepared from 18-day rat embryos as described (Lochter, A., et al (1991); Brewer, G. J., et al (1993)). Neurons were re-suspended and plated in serum-free Dulbecco's modified Eagle's medium/Nutrient Mix F12 (Life Technologies, Inc.) supplemented with N2 components, 33 mM D-glucose, 1 mM pyruvate, 1 mg/ml BSA, and 5 mM Hepes.
Cerebellar granule cells and hippocampal neurons were seeded into pro-treated 96-well tissue culture plates at a density of 1×10^4 cells or 5×10^3 cells per well, respectively, in 100 μl medium. Soluble fusion proteins were added, when used, 2 hours after seeding the cells, to avoid effects on initial adhesion. […] The lengths of individual neurite were analyzed and quantified with an IBAS image analysis system (Kontron). […] For each cell measured, the total length of all neurites was determined. In each experiment, 50 cells in each of three wells were analyzed. […]

hippocampal neurons [4] = assay: Cell survival assay (MTT), embryonic hippocampal neurons; assay type: cell-based, rat; details: 5 days in culture
Method: as §3

cerebellar granule cells = details: 5 days in culture
injured rat spinal cord = assay: Rat spinal cord contusion injury (NYU impactor), intrathecal infusion; assay type: in vivo; details: 15 μg/ml intrathecally, 6 rats without CyA; unpublished experiments
Method: The NYU Impactor and rat contusion models of spinal cord injury have been extensively described. [Kwo S, Young W, DeCrescito V (1989) Journal of Neurotrauma 6:13-24; Huang P, Young W (1994). Journal of Neurotrauma 11: 547-62; Basso M, Beattie M, Bresnahan J, Anderson DK, Faden A, et al. (1996) Journal of Neurotrauma in press; Constantini S, Young W (1994) Journal of Neurosurgery 80: 97-111]. Rats were anesthetized with an intraperitoneal dose of pentobarbital (40 mg/kg female, 60 mg/kg male), suspended with clamps placed on the T8 and T11 dorsal processes, and injured at one hour after induction of anesthesia. The impactor drops a 10 g rod a distance of 12.5, 25.0, or 50.0 mm onto the dorsal surface of T9-10 spinal cord, exposed by laminectomy. Two digital optical potentiometers measured the trajectory of the falling rod and vertebral movement with a precision of ±20 μm and ±20 μsec. Cord compression rate (Cr) was calculated from the distance of cord compression divided by time required for compression. […]
The rats received daily Keflin® (15 mg/kg b.i.d. subcutaneous) for one week after injury and then Baytril® (5 mg/kg b.i.d. subcutaneous) for 10 days for recurrent urinary tract infections. […] The rats were assessed weekly for locomotor recovery, using the Basso-Beattie-Bresnahan (BBB) scale developed at Ohio State University. […]

## COC(=O)c1cccc(-n2c(=O)n(Cc3ccccc3)c(=O)c3ccccc32)c1 [NQ-A, 1-(3-carbomethoxyphenyl)-3-benzyl-quinazoline-2,4-dione]
Dopaminergic neurons [1]
  dopamine uptake: slight elevation of dopamine uptake
Dopaminergic neurons [2]
  protection from MPP+ toxicity: effectively protects against MPP^+ toxicity

B1: CHL1-Fc: extracellular domain of mouse CHL1 fused to the Fc portion of human immunoglobulin IgG1 (protein)
chain: EIPLSVQQVPTIVKQSYVQVAFPFDEYFQIECEAKGNPEPIFSWTKDDKPFDLSDPRIIAANNSGTFKIPNEGHISHFQGKYRCFASNRLGTAVSEEIEFIVPGVPKFPKEKIEPIDVEEGDSIVLPCNPPKGLPPLHIYWMNIELEHIEQDERVYMSQRGDLYFANVEENDSRNDYCCFAAFPKLRTIVQKMPMKLTVNSSNSIKQRKPKLLLPPAQMGSLSAKTVLKGDTLLLECFAEGLPTPHIQWSKPGSELPEGRATIEVHEKTLKIENISYQDRGNYRCTANNLLGKASHDFHVTVEEPPRWKKKPQSAVYSTGSSGILLCEAEGEPQPTIKWRLNGLPIEKHPFPGDFMFPREISFTNLLFNHTGVYQCEASNIHGTILANANIDVIDVIPLIKTKNEENYATVVGYSAFLHCEYFASPKATVVWEVADETHPLEGDRYHTHENGTLEIYRTTEEDAGSYSCWVDNAMGKAVITANLDIRNATKLRVSPKNPRIPKSHVLELYCESQCDSHLKHSLKLSWSKDGEAFEMNGTEDGRIVIDGAYLTISNITAEDQGVYSCSAQTSLDSTSEKTQVTVLGVPDPPETFTCQKDKNRSVRLLREAGDDHNSKSASTIVEFEGNREEPGKWEELTRVQGEETDVVLSLAPYVRYQFRVTAVNEVGRSHASLPSDHHETPPAAPDKNPQNIRVQASQPKEMIIKWEPLKSMEQNGPGLEYKVSWKPQGAPEEWEEEIVTNHTLRVMTPTVYAPYDVKVQAINQLGSSPDPQPVTLYSGEDYPSTAPVIQRVDVMNSTLVKVTWSSIPKETVHGLLRGYQINWWKTKSLLDGRTHPKEVNILRFSGQRNSGMVPSLDPFSEFHLTVLAYNSKGAGPESEPYIFQTPEGVPEQPSFLKVIKVDKDTATLSWGLPKKLNGNLTGYLLQYQIINDTYELGELNEINVTTPSKSSWHLSNLNSTTKYKFYLRACTSRGCGKPISEEGATLGEGSKGIRKITEGVNVTQKIHPVEVLVPGAEHIVHLMTKNWGDNDSIFQDVIETRGREYAGLYDDISTQGW
modifications: left off: a dimerising Fc or GST
notes: extracellular domain of mouse CHL1 fused to the Fc portion of human immunoglobulin IgG1
Hippocampal neurons [3]
  neurite outgrowth: a stimulation was observed
Hippocampal neurons [4]
  concentration of maximal effect on survival: 1 µg/mL
  survival: enhanced survival
Cerebellar granule cells
  morphological features of cultures: denser, generally healthier-looking cultures

B2: NgCAM: immunogenic chick NgCAM given intrathecally (protein, UniProt Q03696 21-1266, looked up)
Neuronal-glial cell adhesion …: ITIPPEYGAHDFLQPPELTEEPPEQLVVFPSDDIVLKCVATGNPPVQYRWSREDQPFVPEEHGGVSVVPGSGTLVINATLAARLQGRFRCFATNALGTAVSPEANVIAENTPQWPKEKVTPVEVEEGDPVVLPCDPPESAVPPKIYWLNSDIVHIAQDERVSMGQDGNLYFSNAMVGDSHPDYICHAHFLGPRTIIQKEPLDLRVAPSNAVRSRRPRLLLPRDPQTTTIALRGGSVVLECIAEGLPTPWVRWRRLNGPLLPGGVGNFNKTLRLWGVTESDDGEYECVAENGRGTARGTHSVTVEAAPYWVRRPQSGVFGPGETARLDCEVGGKPRPQIQWSINGVPIEAAGAERRWLRGGALVLPELRPNDSAVLQCEARNRHGPLLANAFLHVVELPLRMLTADEQRYEVVENQTVFLHCRTFGAPAPNVEWLTPTLEPALQDDRSFVFTNGSLRVSAVRGGDGGVYTCMAQNAHSNGSLTALLEVRAPTRISAPPRSATAKKGETVTFHCGATFDPAVTPGELRWLRGGQPLPDDPRYSVAAEMTVSNVDYGDEGTIQCRASTPLDSAEAEAQLRVVGRPPSRDLQVMEVDEHRVRLSWTPGDDHNSPIEKFVVEEEEEREDLQRGFGAADVPGQPWTPPLPLSPYGRFPFRVVAVNAYGRGEHHAPSAPIETPPAAPERNPGGVHGEGNETGNLVITWEPLPPQAWNAPWARYRVQWRPLEEPGGGGPSGGFPWAESTVDAPPVVVGGLPPFSPFQIRVQAVNGAGKGPEATPGVGHSGEDLPLVYPENVGVELLNSSTVRVRWTLGGGPKELRGRLRGFRVLYWRLGWVGERSRRQAPPDPPQIPQSPAEDPPPFPPVALTVGGDARGALLGGLRPWSRYQLRVLVFNGRGDGPPSEPIAFETPEGVPGPPEELRVERLDDTALSVVERRTFKRSITGYVLRYQQVEPGSALPGGSVLRDPQCDLRGLNARSRYRLALPSTPRERPALQTVGSTKPEPPSPLWSRFGVGGRGGFHGAAVEFGAAQEDDVEFEVQFMNKSTDEPWRTSGRANSSLRRYRLEGLRPGTAYRVQFVGRNRSGENVAFWESEVQTNGTVVPQPGGGVCTKGWFIGFVSSVVLLLLILLILCFIKRSKGGKYSVKDKEDTQVDSEARPMKDETFGEYRSLESEAEKGSASGSGAGSGVGSPGRGPCAAGSEDSLAGYGGSGDVQFNEDGSFIGQYRGPGAGPGSSGPASPCAGPPLD
Injured rat spinal cord
  locomotor recovery and corticospinal tract regeneration: did not result in locomotor recovery or evidence of regenerating corticospinal tracts
